Data published in the Human Domainome abundance scans (Beltran et al. 2025).
± gives the uncertainty stated by the source.

B1: Androgen receptor, residues 557 to 632; numbered along this chain, P10275 (parent)
chain: QKTCLICGDEASGCHYGALTCGSCKVFFKRAAEGKQKYLCASRNDCTIDKFRRKNCPSCRLRKCYEAGMTLGARKL

Variants of: B1
Assay: abundance fitness (aPCA) (normalised: wild type 0, dead -1); higher = more abundant; growth selection in yeast, the domain comes from the species named
Conditions: Homo sapiens

Going from QKTCLICGDEASGCHMGALTCGSCKVFFKRAAEGKQKYLCASRNDCTIDKFRRKNCPSCRLRKCYEAGMTLGARKL [Y16M] to QKTCLICGDEASGCHVGALTCGSCKVFFKRAAEGKQKYLCASRNDCTIDKFRRKNCPSCRLRKCYEAGMTLGARKL [Y16V], the abundance fitness falls from -0.11 ± 0.041 to -0.609 ± 0.044.

QKTCLICGDEASGCHGGALTCGSCKVFFKRAAEGKQKYLCASRNDCTIDKFRRKNCPSCRLRKCYEAGMTLGARKL [Y16G] and QKTCLICGDEASGCHTGALTCGSCKVFFKRAAEGKQKYLCASRNDCTIDKFRRKNCPSCRLRKCYEAGMTLGARKL [Y16T] are within error of each other in abundance fitness: -0.432 ± 0.034 for the first, -0.445 ± 0.044 for the second.

First: QKTCLICGDEASGCHLGALTCGSCKVFFKRAAEGKQKYLCASRNDCTIDKFRRKNCPSCRLRKCYEAGMTLGARKL [Y16L]
Second: QKTCLICGDEASGCHKGALTCGSCKVFFKRAAEGKQKYLCASRNDCTIDKFRRKNCPSCRLRKCYEAGMTLGARKL [Y16K]
The abundance fitness of the first is higher: -0.275 ± 0.032 for the first, -0.473 ± 0.08 for the second.

First: QKTCLICGDEASGCHQGALTCGSCKVFFKRAAEGKQKYLCASRNDCTIDKFRRKNCPSCRLRKCYEAGMTLGARKL [Y16Q]
Second: QKTCLICGDEASGCHWGALTCGSCKVFFKRAAEGKQKYLCASRNDCTIDKFRRKNCPSCRLRKCYEAGMTLGARKL [Y16W]
The abundance fitness of the first is lower: -0.487 ± 0.074 for the first, -0.122 ± 0.034 for the second.

Compared with QKTCLICGDEASGCHDGALTCGSCKVFFKRAAEGKQKYLCASRNDCTIDKFRRKNCPSCRLRKCYEAGMTLGARKL [Y16D], QKTCLICGDEASGCHRGALTCGSCKVFFKRAAEGKQKYLCASRNDCTIDKFRRKNCPSCRLRKCYEAGMTLGARKL [Y16R] is lower in abundance fitness: -0.355 ± 0.097 for the first, -0.684 ± 0.043 for the second.

QKTCLICGDEASGCHNGALTCGSCKVFFKRAAEGKQKYLCASRNDCTIDKFRRKNCPSCRLRKCYEAGMTLGARKL [Y16N] and QKTCLICGDEASGCHSGALTCGSCKVFFKRAAEGKQKYLCASRNDCTIDKFRRKNCPSCRLRKCYEAGMTLGARKL [Y16S] are within error of each other in abundance fitness: -0.307 ± 0.12 for the first, -0.408 ± 0.038 for the second.

QKTCLICGDEASGCHPGALTCGSCKVFFKRAAEGKQKYLCASRNDCTIDKFRRKNCPSCRLRKCYEAGMTLGARKL [Y16P] and QKTCLICGDEASGCHAGALTCGSCKVFFKRAAEGKQKYLCASRNDCTIDKFRRKNCPSCRLRKCYEAGMTLGARKL [Y16A] are within error of each other in abundance fitness: -0.455 ± 0.052 for the first, -0.397 ± 0.035 for the second.

QKTCLICGDEASGCHCGALTCGSCKVFFKRAAEGKQKYLCASRNDCTIDKFRRKNCPSCRLRKCYEAGMTLGARKL [Y16C] and QKTCLICGDEASGCHHGALTCGSCKVFFKRAAEGKQKYLCASRNDCTIDKFRRKNCPSCRLRKCYEAGMTLGARKL [Y16H] are within error of each other in abundance fitness: -0.566 ± 0.081 for the first, -0.333 ± 0.21 for the second.

QKTCLICGDEASGCVYGALTCGSCKVFFKRAAEGKQKYLCASRNDCTIDKFRRKNCPSCRLRKCYEAGMTLGARKL [H15V] and QKTCLICGDEASGCYYGALTCGSCKVFFKRAAEGKQKYLCASRNDCTIDKFRRKNCPSCRLRKCYEAGMTLGARKL [H15Y] are within error of each other in abundance fitness: -0.182 ± 0.075 for the first, -0.237 ± 0.16 for the second.

QKTCLICGDEASGCTYGALTCGSCKVFFKRAAEGKQKYLCASRNDCTIDKFRRKNCPSCRLRKCYEAGMTLGARKL [H15T] and QKTCLICGDEASGCQYGALTCGSCKVFFKRAAEGKQKYLCASRNDCTIDKFRRKNCPSCRLRKCYEAGMTLGARKL [H15Q] are within error of each other in abundance fitness: 0.045 ± 0.1 for the first, -0.175 ± 0.12 for the second.

Compared with QKTCLICGDEASGCRYGALTCGSCKVFFKRAAEGKQKYLCASRNDCTIDKFRRKNCPSCRLRKCYEAGMTLGARKL [H15R], QKTCLICGDEASGCWYGALTCGSCKVFFKRAAEGKQKYLCASRNDCTIDKFRRKNCPSCRLRKCYEAGMTLGARKL [H15W] is higher in abundance fitness: -0.221 ± 0.063 for the first, 0.097 ± 0.062 for the second.

Compared with QKTCLICGDEASGCHYGPLTCGSCKVFFKRAAEGKQKYLCASRNDCTIDKFRRKNCPSCRLRKCYEAGMTLGARKL [A18P], QKTCLICGDEASGCHYGLLTCGSCKVFFKRAAEGKQKYLCASRNDCTIDKFRRKNCPSCRLRKCYEAGMTLGARKL [A18L] is higher in abundance fitness: -0.26 ± 0.052 for the first, -0.155 ± 0.034 for the second.

QKTCLICGDEASGCHYGELTCGSCKVFFKRAAEGKQKYLCASRNDCTIDKFRRKNCPSCRLRKCYEAGMTLGARKL [A18E] and QKTCLICGDEASGCHYGHLTCGSCKVFFKRAAEGKQKYLCASRNDCTIDKFRRKNCPSCRLRKCYEAGMTLGARKL [A18H] are within error of each other in abundance fitness: -0.617 ± 0.074 for the first, -0.799 ± 0.15 for the second.

Compared with QKTCLICGDEASGCHYGYLTCGSCKVFFKRAAEGKQKYLCASRNDCTIDKFRRKNCPSCRLRKCYEAGMTLGARKL [A18Y], QKTCLICGDEASGCHYGILTCGSCKVFFKRAAEGKQKYLCASRNDCTIDKFRRKNCPSCRLRKCYEAGMTLGARKL [A18I] is higher in abundance fitness: -0.776 ± 0.13 for the first, 0.124 ± 0.16 for the second.

QKTCLICGDEASGCHYGSLTCGSCKVFFKRAAEGKQKYLCASRNDCTIDKFRRKNCPSCRLRKCYEAGMTLGARKL [A18S] and QKTCLICGDEASGCHYGDLTCGSCKVFFKRAAEGKQKYLCASRNDCTIDKFRRKNCPSCRLRKCYEAGMTLGARKL [A18D] are within error of each other in abundance fitness: -0.142 ± 0.048 for the first, -0.232 ± 0.073 for the second.

First: QKTCLICGDEASGCHYGRLTCGSCKVFFKRAAEGKQKYLCASRNDCTIDKFRRKNCPSCRLRKCYEAGMTLGARKL [A18R]
Second: QKTCLICGDEASGCHYGFLTCGSCKVFFKRAAEGKQKYLCASRNDCTIDKFRRKNCPSCRLRKCYEAGMTLGARKL [A18F]
The abundance fitness of the first is higher: -0.24 ± 0.039 for the first, -0.684 ± 0.12 for the second.

Compared with QKTCLICGDEASGCHYGWLTCGSCKVFFKRAAEGKQKYLCASRNDCTIDKFRRKNCPSCRLRKCYEAGMTLGARKL [A18W], QKTCLICGDEASGCHYGGLTCGSCKVFFKRAAEGKQKYLCASRNDCTIDKFRRKNCPSCRLRKCYEAGMTLGARKL [A18G] is higher in abundance fitness: -1.07 ± 0.12 for the first, -0.335 ± 0.033 for the second.

Going from QKTCLICGDEASGCHYGQLTCGSCKVFFKRAAEGKQKYLCASRNDCTIDKFRRKNCPSCRLRKCYEAGMTLGARKL [A18Q] to QKTCLICGDEASGCHYGVLTCGSCKVFFKRAAEGKQKYLCASRNDCTIDKFRRKNCPSCRLRKCYEAGMTLGARKL [A18V], the abundance fitness rises from -0.223 ± 0.045 to -0.04 ± 0.033.
